Key:
[1] = biological target: OX40 on OX40 over-expressed cells (UniProt P43489); test: flow cytometry, 1 µg/ml positive reference on OX40 over-expressed cells
[2] = biological target: OX40 on OX40 over-expressed cells (UniProt P43489); test: flow cytometry, 1 µg/ml isotype control on OX40 over-expressed cells (PBS: 1388)

OX40 on OX40 over-expressed cells, sequence (P43489 29-277): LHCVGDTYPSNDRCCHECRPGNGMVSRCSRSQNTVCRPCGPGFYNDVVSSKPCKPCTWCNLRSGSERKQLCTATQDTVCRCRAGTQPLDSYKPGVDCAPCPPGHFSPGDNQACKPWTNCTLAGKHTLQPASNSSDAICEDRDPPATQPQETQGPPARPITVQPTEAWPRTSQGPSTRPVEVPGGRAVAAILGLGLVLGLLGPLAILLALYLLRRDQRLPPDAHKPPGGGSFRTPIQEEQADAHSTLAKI

| Y586 channel PE fluorescence value [1] | Y586 channel PE fluorescence value [2] | Substance |
| --- | --- | --- |
| 210000 | – | anti-OX40 antibody (clone ACT35, Biogene) |
| – | 1830 | IgG2a isotype control (clone MG2a-53, Biogene) (antibody) |
